T1: extracellular domain (ECD) of human αKlotho, amino acids E34-S981 with C-terminal 6-His tag (R&D Systems … (human, UniProt Q9UEF7 34-981))
T1 construct: range 34-981; also called αKlotho (aa34-981); target antigen
T1 sequence: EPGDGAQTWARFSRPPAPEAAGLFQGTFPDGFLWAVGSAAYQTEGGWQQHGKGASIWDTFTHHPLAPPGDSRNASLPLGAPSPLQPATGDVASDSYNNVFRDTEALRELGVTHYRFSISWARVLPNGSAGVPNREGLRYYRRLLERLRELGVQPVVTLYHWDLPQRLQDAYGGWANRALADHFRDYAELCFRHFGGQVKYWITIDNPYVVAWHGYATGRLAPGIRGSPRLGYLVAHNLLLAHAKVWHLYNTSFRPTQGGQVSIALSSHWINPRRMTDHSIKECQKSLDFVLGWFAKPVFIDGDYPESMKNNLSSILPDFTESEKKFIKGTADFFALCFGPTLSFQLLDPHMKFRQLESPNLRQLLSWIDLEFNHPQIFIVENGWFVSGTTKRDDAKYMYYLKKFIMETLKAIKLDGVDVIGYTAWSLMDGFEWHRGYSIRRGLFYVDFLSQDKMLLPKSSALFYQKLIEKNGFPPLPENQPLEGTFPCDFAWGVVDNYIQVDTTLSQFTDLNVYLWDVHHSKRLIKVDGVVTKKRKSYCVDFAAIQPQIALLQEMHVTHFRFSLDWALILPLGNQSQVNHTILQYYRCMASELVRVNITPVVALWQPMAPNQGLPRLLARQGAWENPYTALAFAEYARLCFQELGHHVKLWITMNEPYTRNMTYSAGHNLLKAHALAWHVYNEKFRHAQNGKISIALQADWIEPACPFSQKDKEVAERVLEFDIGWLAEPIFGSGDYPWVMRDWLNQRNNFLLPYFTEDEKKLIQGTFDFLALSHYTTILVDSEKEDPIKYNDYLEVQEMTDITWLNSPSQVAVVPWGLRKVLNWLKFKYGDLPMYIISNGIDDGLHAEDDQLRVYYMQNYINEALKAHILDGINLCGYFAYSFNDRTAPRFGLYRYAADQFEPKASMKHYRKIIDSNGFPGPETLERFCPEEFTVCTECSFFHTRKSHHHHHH


Legend:
[1] = target: T1, extracellular domain (ECD) of human …; assay: SPR, Fab captured by anti-H+L IgG, αKlotho injected at 50 to 6.25 ug/ml, Langmuir fit
Description: (§1) Affinity estimates for each of the antibodies were determined by surface plasmon resonance (SPR). Fabs were immobilized using an anti-H+L antibody and serial dilutions of αKlotho were injected.

[2] = target: T1, extracellular domain (ECD) of human …; assay: SPR, Fab captured by anti-H+L antibody, αKlotho injected
Description: as §1

[3] = target: T1, extracellular domain (ECD) of human …; assay: SPR, Fab captured by anti-H+L IgG, αKlotho injected at 50 to 6.25 ug/ml, Langmuir fit [continued]
Description: as §1

bovine serum albumin = target: T2, bovine serum albumin (bovine, UniProt P02769 25-607); assay: Fab ELISA, purified Fab 5 ug/ml on immobilised BSA, anti-Flag-HRP, A450
T2 construct: also called BSA
T2 sequence (P02769 25-607 limits assumed): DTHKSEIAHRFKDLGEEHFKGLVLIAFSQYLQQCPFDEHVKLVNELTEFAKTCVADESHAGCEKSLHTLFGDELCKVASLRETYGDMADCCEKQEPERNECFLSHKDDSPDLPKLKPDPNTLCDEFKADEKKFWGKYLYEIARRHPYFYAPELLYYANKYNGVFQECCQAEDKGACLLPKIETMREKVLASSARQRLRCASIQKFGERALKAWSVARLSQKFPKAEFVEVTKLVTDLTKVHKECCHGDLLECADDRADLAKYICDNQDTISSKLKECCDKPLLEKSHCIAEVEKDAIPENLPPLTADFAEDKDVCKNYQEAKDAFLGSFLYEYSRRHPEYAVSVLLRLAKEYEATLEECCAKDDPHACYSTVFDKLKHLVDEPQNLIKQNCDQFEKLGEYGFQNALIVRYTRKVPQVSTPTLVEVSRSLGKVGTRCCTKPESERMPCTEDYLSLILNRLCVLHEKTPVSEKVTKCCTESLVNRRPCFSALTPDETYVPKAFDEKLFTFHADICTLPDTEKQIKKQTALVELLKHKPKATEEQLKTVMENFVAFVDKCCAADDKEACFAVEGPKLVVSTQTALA
Description: FIG. 10 is a graph showing absorbance values of Fab ELISAs with additional αKlotho antibodies. Purified Fabs [5 ug/ml] were incubated with immobilized αKlotho (1 ug/ml) or bovine serum albumin (BSA), as a negative control. After washing off unbound Fab, bound Fab were detected using an HRP-conjugated anti-Flag anti-body (Fabs have Flag-tag on the light chain). Colorimetric HRP reagents allow for absorbance readings at 450 nm.

Binder | Kd [1] [pM] | koff [1] [s⁻¹] | kon [1] [M⁻¹ s⁻¹] | Kd [2] [pM] | Kd [3] [pM] | koff [3] [s⁻¹] | kon [3] [M⁻¹ s⁻¹] | binding result (bovine serum albumin)
anti-αKlotho Fab clone 4804 (Fab, V domains shown, Fab (also as Fab-phage); FLAG tag on light chain C-terminus; also called sb173) VH: EVQLVESGGGLVQPGGSLRLSCAASGFNLYSYSIHWVRQAPGKGLEWVAYISSSSGSTYYADSVKGRFTISADTSKNTAYLQMNSLRAEDTAVYYCARGWGGGYWFYPVYGIDYWGQGTLVTVSS VL: DIQMTQSPSSLSASVGDRVTITCRASQSVSSAVAWYQQKPGKAPKLLIYSASSLYSGVPSRFSGSRSGTDFTLTISSLQPEDFATYYCQQSSYSLITFGQGTKVEIKR | 516 | 0.000738 | 1.43e+06 | 770 | – | – | – | –
anti-αKlotho Fab clone 4805 (Fab, V domains shown, Fab (also as Fab-phage); FLAG tag on light chain; also called sb174) VH: EVQLVESGGGLVQPGGSLRLSCAASGFNLSYYSMHWVRQAPGKGLEWVASISSYYGSTYYADSVKGRFTISADTSKNTAYLQMNSLRAEDTAVYYCARGGGYYSGPYAGFDYWGQGTLVTVSS VL: DIQMTQSPSSLSASVGDRVTITCRASQSVSSAVAWYQQKPGKAPKLLIYSASSLYSGVPSRFSGSRSGTDFTLTISSLQPEDFATYYCQQSSGWYHFLFTFGQGTKVEIKR | 117 | 0.000183 | 1.57e+06 | 240 | – | – | – | –
anti-αKlotho Fab clone 4807 (Fab, V domains shown, Fab (also as Fab-phage); FLAG tag on light chain; also called sb176) VH: EVQLVESGGGLVQPGGSLRLSCAASGFNLSSSYMHWVRQAPGKGLEWVASIYPSYGSTSYADSVKGRFTISADTSKNTAYLQMNSLRAEDTAVYYCARGVVPSYYYWFWPYGAIDYWGQGTLVTVSS VL: DIQMTQSPSSLSASVGDRVTITCRASQSVSSAVAWYQQKPGKAPKLLIYSASSLYSGVPSRFSGSRSGTDFTLTISSLQPEDFATYYCQQSSYSLITFGQGTKVEIKR | 3500 | 0.00244 | 698000 | 6100 | – | – | – | –
anti-αKlotho Fab clone 4829 (Fab, V domains shown, Fab (also as Fab-phage); FLAG tag on light chain; also called sb198) VH: EVQLVESGGGLVQPGGSLRLSCAASGFNISSYYIHWVRQAPGKGLEWVASIYSSYGYTSYADSVKGRFTISADTSKNTAYLQMNSLRAEDTAVYYCARYSWSPYWWWAYSGLDYWGQGTLVTVSS VL: DIQMTQSPSSLSASVGDRVTITCRASQSVSSAVAWYQQKPGKAPKLLIYSASSLYSGVPSRFSGSRSGTDFTLTISSLQPEDFATYYCQQGGGLITFGQGTKVEIKR | – | – | – | 1800 | 907 | 0.000614 | 678000 | no binding (tested: 5 ug/ml)
anti-αKlotho Fab clone 4830 (Fab, V domains shown, Fab (also as Fab-phage); FLAG tag on light chain; also called sb199) VH: EVQLVESGGGLVQPGGSLRLSCAASGFNIYYSSIHWVRQAPGKGLEWVASIYPYYSYTYYADSVKGRFTISADTSKNTAYLQMNSLRAEDTAVYYCARSVASALDYWGQGTLVTVSS VL: DIQMTQSPSSLSASVGDRVTITCRASQSVSSAVAWYQQKPGKAPKLLIYSASSLYSGVPSRFSGSRSGTDFTLTISSLQPEDFATYYCQQYSWYWYSPITFGQGTKVEIKR | – | – | – | 2900 | 1530 | 0.00113 | 741000 | no binding (tested: 5 ug/ml)
anti-αKlotho Fab clone 4832 (Fab, V domains shown, Fab (also as Fab-phage); FLAG tag on light chain; also called sb201) VH: EVQLVESGGGLVQPGGSLRLSCAASGFNFSSSSIHWVRQAPGKGLEWVAYISSSYGYTSYADSVKGRFTISADTSKNTAYLQMNSLRAEDTAVYYCARASGWFSHFYPAAVSGMDYWGQGTLVTVSS VL: DIQMTQSPSSLSASVGDRVTITCRASQSVSSAVAWYQQKPGKAPKLLIYSASSLYSGVPSRFSGSRSGTDFTLTISSLQPEDFATYYCQQSSYSLITFGQGTKVEIKR | – | – | – | 515 | 123 | 4.61e-05 | 374000 | no binding (tested: 5 ug/ml)
anti-αKlotho Fab clone 4833 (Fab, V domains shown, Fab (also as Fab-phage); FLAG tag on light chain; also called sb202) VH: EVQLVESGGGLVQPGGSLRLSCAASGFNLSSYYMHWVRQAPGKGLEWVASIYPSYSSTYYADSVKGRFTISADTSKNTAYLQMNSLRAEDTAVYYCARSSYSVYFWWYVSAMDYWGQGTLVTVSS VL: DIQMTQSPSSLSASVGDRVTITCRASQSVSSAVAWYQQKPGKAPKLLIYSASSLYSGVPSRFSGSRSGTDFTLTISSLQPEDFATYYCQQSSHGHYPITFGQGTKVEIKR | – | – | – | 1400 | 703 | 0.000519 | 739000 | no binding (tested: 5 ug/ml)

Source: patent US20190041402A1 (GOVERNING COUNCIL OF THE UNIVERSITY OF TORONTO, published 2019)
